According to publication doi:10.1101/2021.05.31.446396 (bioRxiv, 2021):

Target: the molecule itself
Assay: SAXS

B1: EccCb1 enzyme, full length (Met1-Glu591), M. tuberculosis ESX-1 (enzyme)
chain: MTAEPEVRTLREVVLDQLGTAESRAYKMWLPPLTNPVPLNELIARDRRQPLRFALGIMDEPRRHLQDVWGVDVSGAGGNIGIGGAPQTGKSTLLQTMVMSAAATHSPRNVQFYCIDLGGGGLIYLENLPHVGGVANRSEPDKVNRVVAEMQAVMRQRETTFKEHRVGSIGMYRQLRDDPSQPVASDPYGDVFLIIDGWPGFVGEFPDLEGQVQDLAAQGLAFGVHVIISTPRWTELKSRVRDYLGTKIEFRLGDVNETQIDRITREIPANRPGRAVSMEKHHLMIGVPRFDGVHSADNLVEAITAGVTQIASQHTEQAPPVRVLPERIHLHELDPNPPGPESDYRTRWEIPIGLRETDLTPAHCHMHTNPHLLIFGAAKSGKTTIAHAIARAICARNSPQQVRFMLADYRSGLLDAVPDTHLLGAGAINRNSASLDEAVQALAVNLKKRLPPTDLTTAQLRSRSWWSGFDVVLLVDDWHMIVGAAGGMPPMAPLAPLLPAAADIGLHIIVTCQMSQAYKATMDKFVGAAFGSGAPTMFLSGEKQEFPSSEFKVKRRPPGQAFLVSPDGKEVIQAPYIEPPEEVFAAPPSAG
stoichiometry N: 12
